Patent US12365732 (23ANDME, dated 2025)
Where a chain is given by its changes, count along the chain named. Numbers in names are those of the source.

T1: cynomolgus monkey CD96 on cynomolgus monkey PBMCs (cynomolgus monkey, UniProt A0A2K5TWV6 22-569)
T1 construct: whole, on cells
T1 sequence: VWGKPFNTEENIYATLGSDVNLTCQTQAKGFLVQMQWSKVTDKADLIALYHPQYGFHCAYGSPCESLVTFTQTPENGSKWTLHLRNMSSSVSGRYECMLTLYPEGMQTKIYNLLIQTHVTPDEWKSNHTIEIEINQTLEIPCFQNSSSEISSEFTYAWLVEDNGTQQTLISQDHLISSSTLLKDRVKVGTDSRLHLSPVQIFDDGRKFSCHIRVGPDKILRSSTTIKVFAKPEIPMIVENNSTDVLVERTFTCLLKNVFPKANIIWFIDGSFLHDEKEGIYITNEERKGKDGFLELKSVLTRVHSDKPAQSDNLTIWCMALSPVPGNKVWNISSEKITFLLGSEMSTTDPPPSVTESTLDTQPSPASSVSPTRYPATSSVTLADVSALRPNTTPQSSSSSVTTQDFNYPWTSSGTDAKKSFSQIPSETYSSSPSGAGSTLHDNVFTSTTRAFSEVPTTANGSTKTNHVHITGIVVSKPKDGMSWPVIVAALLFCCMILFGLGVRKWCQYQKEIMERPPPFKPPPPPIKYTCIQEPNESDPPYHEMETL

T2: hu-CD96 isoform 2 on CHO cells (human, UniProt P40200 22-585)
T2 construct: also called CHO-CD96 (isoform 2); CD96-CHOs
T2 sequence: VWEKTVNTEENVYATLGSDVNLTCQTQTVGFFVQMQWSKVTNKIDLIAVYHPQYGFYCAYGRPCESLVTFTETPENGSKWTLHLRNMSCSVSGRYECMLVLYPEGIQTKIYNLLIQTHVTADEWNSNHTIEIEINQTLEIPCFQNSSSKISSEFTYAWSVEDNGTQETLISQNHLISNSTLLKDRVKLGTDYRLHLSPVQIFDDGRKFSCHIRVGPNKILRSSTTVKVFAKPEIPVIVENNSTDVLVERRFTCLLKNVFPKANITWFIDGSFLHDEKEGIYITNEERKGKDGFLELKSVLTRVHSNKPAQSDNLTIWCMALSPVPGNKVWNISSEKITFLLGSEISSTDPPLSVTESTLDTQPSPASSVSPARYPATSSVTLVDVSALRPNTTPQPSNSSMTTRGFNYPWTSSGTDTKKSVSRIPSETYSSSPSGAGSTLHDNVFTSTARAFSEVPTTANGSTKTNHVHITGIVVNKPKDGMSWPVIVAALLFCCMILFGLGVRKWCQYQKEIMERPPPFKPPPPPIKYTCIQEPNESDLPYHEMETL

B1: mAb1.v7.NGS9 IgG (antibody, V domains shown)
VH: EVQLVQSGAEVKKPGASVKVSCKASGFTFTNNFMHWVRQAPGQGLEWIGMIHANSGITNINEKFKNRVTMTTDTSTSTAYMELRSLRSEDTAVYYCRSDGVYEGYFDYWGQGTLVTVSS
VL: DIQLTQSPSSLSASVGDRVTITCKASQNVGTAIVWYQQKPGKAPKVLIYSASTRYTGVPSRFSGSGSGTDFTLTISSLQPEDFATYYCQQYSSSPLTFGQGTKVEIKG
notes: human IgG1 N297G
B2: mAb1.v7.NGS11 IgG (antibody, V domains shown)
VH: B1 VH with M50F
VL: B1 VL
notes: human IgG1 N297G
B3: mAb1.v7.NGS10 IgG (antibody, V domains shown)
VH: B1 VH with M50F, V101I
VL: B1 VL
notes: human IgG1 N297G
B4: h10G1 IgG (humanized 10G1) (antibody, V domains shown)
VH: EIQLVQSGSELKKPGASVKVSCKASGYPFTTYGMSWVRQAPGQGLEWMGWINTDSGVPTYADDFKGRFVFSLDTSVSTAYLQISSLKAEDTAVYFCARNIYYGWGNFDYWGQGTLVTVSS
VL: EIVMTQSPDFQSVTPKEKVTITCRASQDIYRNLHWYQQKPDQTPKLLIKHASDSISGIPSRFSGSGSGTDFTLTINSLEAEDAAAYYCLQGYSMPYTFGGGTKVEIKG
notes: human IgG1 N297G
B5: 7E5, purified hybridoma antibody (antibody, V domains shown)
VH: QVQLKESGPGLVAPSQSLSIICTVSGFSLTNYGIHWIRQPPGKGLEWLGIIWAGGSTNYNSALMSRLTISKDNSKSQVFLKMNSLQTNDTAIYYCARVSMMGFAYWGQGTLVTVSA
VL: QAVVTQESALTTSPGETVTLTCRSSTGAVTTSNYANWVQEKPDHLFTGLIGGTNNRAPGVPARFSGSLIGDKAALTITGAQTEDEAIYFCSLWYGSHWVFGGGTKLTVL
notes: murine hybridoma IgG
B6: 10G1 (clone 10G1.3G8), purified hybridoma antibody (antibody, V domains shown)
VH: QIQLVQSGPELKKPGETVKISCKASGYPFTTYGMSWVKQAPGKGLKWMGWINTDSGVPTYADDFKGRFAFSLETSANTAYLQINSLKNEDAATYFCARNIYYGWGNFDYWGQGTILTVSS
VL: DILMTQSPTTLSVTPGETVSLSCRASQDIYRNLHWYQQKSQGTPRLLIKHASDSISGIPSRFTGSGSGTDFTLSINSVKPEDEGIYYCLQGYSMPYTFGGGTKLEIK
notes: murine hybridoma IgG
B7: 9H4, purified hybridoma antibody (antibody, V domains shown)
VH: EVQLLETGGGLVKSGGSLKLSCAASGFTFSDYYMYWVRQTPEKRLEWVAAISDDGTYTYYPDSVKGRFTISRDNANNYLYLQMSSLKSEDTAIYYCAKAGSYDYFDVWGAGTTVTVSS
VL: DIVLTQSPASLAVSLGQRAIISCKASQSVTFADTGLMHWYQQKPGQQPKLLIYRASNLEVGVPTRFSGSGSGTDFTLNIHPVEEEDVATYYCQQSREYPWTFGGGTKLEIK
notes: murine hybridoma IgG
B8: mAb1.v7 IgG (humanized 12F8) (antibody, V domains shown)
VH: B1 VH with F33W, A53P, V101T
VL: B1 VL
notes: human IgG1 N297G

biological target: T1, cynomolgus monkey CD96 on cynomolgus …; experiment: FACS, Ab 80 nM
Experimental: The ability of the anti-CD96 antibodies to bind primary immune cells from human and cynomolgus monkey with lower level of receptor expression was measured. Human PBMCs (StemCell Technologies, catalog #70025) and cynomolgus monkey PBMCs (Primate Biologicals, catalog #CM-MC) were incubated with human TruStain FcX (Biolegend, catalog #422302) for 10 minutes at 4° C., followed by incubation with an anti-CD96 antibody for 20 minutes at 4° C. Cells were washed and the anti-CD96 antibody binding was detected by incubation with anti-mouse IgG-PE (Thermo Fisher, catalog #M30204) or anti-human IgG (Fab) 2-PE (Thermo Fisher, catalog #H10104) for 20 minutes at 4° C. Cells were washed, and immune subtypes were labeled with anti-CD3 (BD, catalog #557705), anti-CD4 (Biolegend, catalog #317424) and anti-CD8 (BD, catalog #557760) for 20 minutes at 4° C. Cell binding was analyzed by flow cytometry with a CytoFLEX (Beckman Coulter). Binding curves were calculated as a percentage of cells positive for bound antibody in the cell type of interest.

| Binder | % positive [%] |
| --- | --- |
| B1 | 73.8 |
| B2 | 81.9 |
| B3 | 75.2 |
| B4 | 68.3 |

biological target: T2, hu-CD96 isoform 2 on CHO cells; experiment: FACS, Ab 0.0032 nM
Experimental: Isoform 1 of hu-CD96 (Origene, catalog #RC213845) was transiently expressed in HEK293T cells following standard lipofectamine or Fugene transfection protocol. […] Cells were washed, and binding was detected by incubation with anti-mouse IgG-FITC (Biolegend, catalog #406001) for 20 minutes at 4° C. Cell binding was analyzed by flow cytometry with a CytoFLEX (Beckman Coulter). Binding curves were calculated as a percentage of cells positive for bound antibody.
Isoform 2 of hu-CD96 (DNA construct: Origene, catalog #RC221005) was expressed on a single-cell-clone-derived CHO stable cell line. Binding of the anti-CD96 antibodies to the CHO cells were determined as described above with isoform 1 of hu-CD96.

| Binder | % positive [%] |
| --- | --- |
| B5 | 0.1 |
| B6 | 0.1 |
| B7 | 0.3 |
| B8 | 0.5 |

biological target: T2, hu-CD96 isoform 2 on CHO cells; experiment: FACS, CD155-Fc-FLAG 10 nM, Ab 0.16 nM
Experimental: CHO cells stably expressing isoform 2 of hu-CD96 (Origene, catalog #RC221005) were incubated with anti-CD96 antibodies for 20 minutes at 4° C. The cells were washed, and then incubated with 10 nM human CD155-Fc-FLAG for 30 minutes at 4° C. Cells were washed, and then human CD155-Fc-FLAG binding was detected by incubation with anti-FLAG-APC (Columbia Biosciences, catalog #D3-1718-1MG) for 20 minutes at 4° C. Cell binding was analyzed by flow cytometry with a CytoFLEX (Beckman Coulter). CD155 binding is represented as median fluorescence intensity (MedFI).
As shown in Table 20 (below), the anti-CD96 antibodies, mAb1.v7.NGS8, mAb1.v7.NGS9, mAb1.v7.NGS10, mAb1.v7.NGS11, and h10G1 inhibited soluble hu-CD155 binding to CD96-expressing CHO cells dose-dependently and potently. The antibody NK92.39 (Fuchs et al., 2004; Biolegend catalog #338405) inhibited receptor binding similarly.

| Binder | CD155-Fc binding (MedFI) |
| --- | --- |
| B1 | 54600 |
| B2 | 51900 |
| B3 | 54100 |
| B4 | 21200 |
